T1: synthetic EPF2 peptide (synEPF2), 30 AA partial EPF2 peptide spanning the predicted cleavage site, Dabcyl-SKNGGVEMEMYPTGSSLPDCSYACGACSPC-Glu(EDANS)
T1 chain: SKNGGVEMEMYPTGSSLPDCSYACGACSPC

T2: synthetic fluorogenic EPF1 peptide
T2 chain: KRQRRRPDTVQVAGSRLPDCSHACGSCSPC


Columns and labels:
[1] = target: T1, synthetic EPF2 peptide (synEPF2), 30 AA …
[2] = target: T2, synthetic fluorogenic EPF1 peptide

| Protein | MALDI-TOF-MS hits of cleavage fragment SKNGGVEMEMYPTGS (SEQ ID NO:131) [1] | MALDI-TOF-MS hits of cleavage fragment SKNGGVEMEMYPTGSSL (SEQ ID NO:130) [1] | MALDI-TOF-MS hits of cleavage fragment SKNGGVEMEMYPTGSSLPD (SEQ ID NO:129) [1] | MALDI-TOF-MS hits of the uncleaved 30 aa peptide [1] | synthetic peptide and protease fluorogenic cleavage assay [1] | synthetic peptide and protease fluorogenic cleavage assay [2] |
| --- | --- | --- | --- | --- | --- | --- |
| CO2-regulated secreted subtilisin-like serine protease (CRSP), STREP II-tagged, synthesized in vitro in the wheat germ system (protein) MKGITFFTPFLSFLYLLCILFMTETEAGSRNGDGVYIVYMGSASSAANANRAQILINTMFKRRANDLLHTYKHGFSGFAARLTAEEAKVIAKKPGVVSVFPDPHFQLHTTHSWDFLKYQTSVKVDSGPPSSASDGSYDSIVGILDTGIWPESESFNDKDMGPIPSRWKGTCMEAKDFKSSNCNRKIIGARYYKNPDDDSEYYTTRDVIGHGSHVSSTIAGSAVENASYYGVASGTAKGGSQNARIAMYKVCNPGGCTGSSILAAFDDAIADGVDVLSLSLGAPAYARIDLNTDPIAIGAFHAVEQGILVICSAGNDGPDGGTVTNTAPWIMTVAANTIDRDFESDVVLGGNKVIKGEGIHFSNVSKSPVYPLIHGKSAKSADASEGSARACDSDSLDQEKVKGKIVLCENVGGSYYASSARDEVKSKGGTGCVFVDDRTRAVASAYGSFPTTVIDSKEAAEIFSYLNSTKDPVATILPTATVEKFTPAPAVAYFSSRGPSSLTRSILKPDITAPGVSILAAWTGNDSSISLEGKPASQYNVISGTSMAAPHVSAVASLIKSQHPTWGPSAIRSAIMTTATQTNNDKGLITTETGATATPYDSGAGELSSTASMQPGLVYETTETDYLNFLCYYGYNVTTIKAMSKAFPENFTCPADSNLDLISTINYPSIGISGFKGNGSKTVTRTVTNVGEDGEAVYTVSVETPPGFNIQVTPEKLQFTKDGEKLTYQVIVSATASLKQDVFGALTWSNAKYKVRSPIVISSESSRTN | (5 hits) | (3 hits) | (14 hits) | The 30 aa, full length, uncleaved peptide was also seen (14 hits) | EPF2 cleavage sample traces indicate that EPF2 cleavage by CRSP could be specific (compared with SDD1) | EPF1 cleavage by both SDD1 and CRSP shows low affinity |
| SDD1 protease, STREPII tagged, synthesized in the SP6-TNT wheat germ system (protein) MEPKPFFLCIIFLLFCSSSSEILQKQTYIVQLHPNSETAKTFASKFDWHLSFLQEAVLGVEEEEEEPSSRLLYSYGSAIEGFAAQLTESEAEILRYSPEVVAVRPDHVLQVQTTYSYKFLGLDGFGNSGVWSKSRFGQGTIIGVLDTGVWPESPSFDDTGMPSIPRKWKGICQEGESFSSSSCNRKLIGARFFIRGHRVANSPEESPNMPREYISARDSTGHGTHTASTVGGSSVSMANVLGNGAGVARGMAPGAHIAVYKVCWFNGCYSSDILAAIDVAIQDKVDVLSLSLGGFPIPLYDDTIAIGTFRAMERGISVICAAGNNGPIESSVANTAPWVSTIGAGTLDRRFPAVVRLANGKLLYGESLYPGKGIKNAGREVEVIYVTGGDKGSEFCLRGSLPREEIRGKMVICDRGVNGRSEKGEAVKEAGGVAMILANTEINQEEDSIDVHLLPATLIGYTESVLLKAYVNATVKPKARIIFGGTVIGRSRAPEVAQFSARGPSLANPSILKPDMIAPGVNIIAAWPQNLGPTGLPYDSRRVNFTVMSGTSMSCPHVSGITALIRSAYPNWSPAAIKSALMTTADLYDRQGKAIKDGNKPAGVFAIGAGHVNPQKAINPGLVYNIQPVDYITYLCTLGFTRSDILAITHKNVSCNGILRKNPGFSLNYPSIAVIFKRGKTTEMITRRVTNVGSPNSIYSVNVKAPEGIKVIVNPKRLVFKHVDQTLSYRVWFVLKKKNRGGKVASFAQGQLTWVNSHNLMQRVRSPISVTLKTN |  |  |  |  |  | EPF1 cleavage by both SDD1 and CRSP shows low affinity |

— patent publication US20150315606
